Test results published in PMC3179954, “A bacterial PriB with weak single-stranded DNA binding activity can stimulate the DNA unwinding activity of its cognate PriA helicase” (BMC Microbiology, 2011).

Columns and labels:
PriB = target: T1, PriB (Neisseria gonorrhoeae, UniProt Q5F924 1-100); assay: fluorescence polarization; 20 mM Tris-HCl pH 8, 10% glycerol, 50 mM NaCl, 1 mM 2-mercaptoethanol, 0.1 mg/ml BSA, 1 nM fluorescein-labeled DNA, 25 C; settings: protein: recombinant, chain copies: 2
T1 sequence: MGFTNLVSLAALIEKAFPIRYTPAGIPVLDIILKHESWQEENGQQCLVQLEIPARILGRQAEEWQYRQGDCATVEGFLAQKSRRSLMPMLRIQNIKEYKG

PriA helicase = target: T2, PriA helicase (Neisseria gonorrhoeae, UniProt Q5F6V8 1-729); assay: as above; settings: protein: recombinant
T2 sequence: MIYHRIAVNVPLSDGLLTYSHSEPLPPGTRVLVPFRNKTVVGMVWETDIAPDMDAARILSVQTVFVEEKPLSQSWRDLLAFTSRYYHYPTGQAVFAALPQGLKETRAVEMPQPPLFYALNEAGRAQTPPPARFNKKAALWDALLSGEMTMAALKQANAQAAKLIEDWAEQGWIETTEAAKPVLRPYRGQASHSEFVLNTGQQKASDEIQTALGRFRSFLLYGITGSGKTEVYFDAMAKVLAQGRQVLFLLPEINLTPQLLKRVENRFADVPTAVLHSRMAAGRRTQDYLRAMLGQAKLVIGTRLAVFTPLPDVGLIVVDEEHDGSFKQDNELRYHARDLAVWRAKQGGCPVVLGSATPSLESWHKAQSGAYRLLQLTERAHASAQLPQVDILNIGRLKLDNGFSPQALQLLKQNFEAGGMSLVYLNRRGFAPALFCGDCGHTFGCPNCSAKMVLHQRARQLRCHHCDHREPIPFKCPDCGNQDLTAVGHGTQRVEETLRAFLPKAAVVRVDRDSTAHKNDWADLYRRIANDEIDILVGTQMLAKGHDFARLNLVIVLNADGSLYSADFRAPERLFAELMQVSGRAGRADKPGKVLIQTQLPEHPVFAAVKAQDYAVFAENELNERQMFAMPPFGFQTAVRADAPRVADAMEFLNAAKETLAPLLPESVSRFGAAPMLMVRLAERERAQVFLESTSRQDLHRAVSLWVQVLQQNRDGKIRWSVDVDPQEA

[1] = target: T3, N. gonorrhoeae PriA (N. gonorrhoeae) (UniProt Q5F6V8)
T3 sequence: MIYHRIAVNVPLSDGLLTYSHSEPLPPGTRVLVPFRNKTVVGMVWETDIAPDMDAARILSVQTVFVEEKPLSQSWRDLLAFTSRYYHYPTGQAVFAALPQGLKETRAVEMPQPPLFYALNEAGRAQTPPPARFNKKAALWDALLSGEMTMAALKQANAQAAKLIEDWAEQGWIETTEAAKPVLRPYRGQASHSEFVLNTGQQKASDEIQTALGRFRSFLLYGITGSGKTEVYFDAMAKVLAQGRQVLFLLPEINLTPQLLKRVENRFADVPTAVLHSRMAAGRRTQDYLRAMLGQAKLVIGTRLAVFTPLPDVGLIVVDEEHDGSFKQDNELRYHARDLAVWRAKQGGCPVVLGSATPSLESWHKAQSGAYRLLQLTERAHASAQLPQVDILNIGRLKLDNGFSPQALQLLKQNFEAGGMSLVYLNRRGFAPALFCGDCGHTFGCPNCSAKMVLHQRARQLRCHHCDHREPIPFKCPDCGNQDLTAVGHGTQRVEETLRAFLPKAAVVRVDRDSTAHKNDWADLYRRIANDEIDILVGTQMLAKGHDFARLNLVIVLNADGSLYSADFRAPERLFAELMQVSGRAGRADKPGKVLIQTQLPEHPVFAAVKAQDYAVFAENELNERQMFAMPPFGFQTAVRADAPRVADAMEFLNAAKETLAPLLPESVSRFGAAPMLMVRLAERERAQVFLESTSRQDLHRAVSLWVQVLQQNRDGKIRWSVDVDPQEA

[2] = target: T3, N. gonorrhoeae PriA (N. gonorrhoeae); remark: listed apart in the source
[3] = substrate: Nc1ncnc2c1ncn2[C@@H]1O[C@H](COP(=O)(O)OP(=O)(O)OP(=O)(O)O)[C@@H](O)[C@H]1O; assay: NADH-coupled spectrophotometric ATPase assay (pyruvate kinase / lactate dehydrogenase); type: biochemical, Neisseria gonorrhoeae; settings: 100 nM Fork 3 DNA, no PriB, 10 nM PriA, 20 mM Hepes pH 8, 50 mM NaCl, 25°C
Description: NADH-coupled spectrophotometric ATPase assay (pyruvate kinase / lactate dehydrogenase) on N. gonorrhoeae PriA

[4] = label: 3' fluorescein on S5 (nascent lagging strand), 25 bp duplex, 3' overhang 25 nt on strand 1
[5] = label: 3' fluorescein, single strand

B1: 3' Overhang (oML276/oML277) (mixed)
DNA 1: AACGTCATAGACGATTACATTGCTACATGGAGCTGTCTAGAGGATCCGAC
DNA 2: TAGCAATGTAATCGTCTATGACGTT
Question: For B1, which Kd (PriB; [4]) is on record?
Answer: The Kd was 628 ± 95 nM.

Question: And the Kd (PriA helicase; [4])?
Answer: Its Kd is 234 ± 62 nM.

B2: N. gonorrhoeae PriB (natural protein)
chain: MGFTNLVSLAALIEKAFPIRYTPAGIPVLDIILKHESWQEENGQQCLVQLEIPARILGRQAEEWQYRQGDCATVEGFLAQKSRRSLMPMLRIQNIKEYKG
Question: For B2, which fold stimulation of PriA helicase activity by PriB (unwinding with versus without PriB; 2 nM PriA, 100 nM PriB monomers, 1 nM 15 bp fork, Fork 1) [1] is on record?
Answer: Its fold stimulation of PriA helicase activity by PriB (unwinding with versus without PriB; 2 nM PriA, 100 nM PriB monomers, 1 nM 15 bp fork, Fork 1) is 1.2 fold.

Question: And the fold stimulation of PriA helicase activity by PriB (unwinding with versus without PriB; 2 nM PriA, 100 nM PriB monomers, 1 nM 25 bp fork, Fork 2) [1]?
Answer: Its fold stimulation of PriA helicase activity by PriB (unwinding with versus without PriB; 2 nM PriA, 100 nM PriB monomers, 1 nM 25 bp fork, Fork 2) is 1.7 fold.

Question: What about the fold stimulation of PriA helicase activity by PriB (unwinding with versus without PriB; 2 nM PriA, 100 nM PriB monomers, 1 nM 40 bp fork, Fork 3) [1] of the same binder?
Answer: Its fold stimulation of PriA helicase activity by PriB (unwinding with versus without PriB; 2 nM PriA, 100 nM PriB monomers, 1 nM 40 bp fork, Fork 3) is 2.4 fold.

Question: What about the percent unwinding of 1 nM Fork 3 by 2 nM PriA against PriB concentration (0 to 100 nM as monomers; 36% without PriB, near saturation at 20 nM) [2] of the same binder?
Answer: The percent unwinding of 1 nM Fork 3 by 2 nM PriA against PriB concentration (0 to 100 nM as monomers; 36% without PriB, near saturation at 20 nM) was 86%.

Question: Which Kd (PriB; [5]) does the source give for AAGCACAATTACCCACGC (ssDNA) [ssDNA (oML228)] here?
Answer: The Kd was 662 ± 37 nM.

Question: What about the Kd (PriA helicase; [5]) of the same binder?
Answer: The Kd was 307 ± 43 nM.

B3: N. gonorrhoeae PriA (Neisseria gonorrhoeae FA 1090) (protein)
chain: MIYHRIAVNVPLSDGLLTYSHSEPLPPGTRVLVPFRNKTVVGMVWETDIAPDMDAARILSVQTVFVEEKPLSQSWRDLLAFTSRYYHYPTGQAVFAALPQGLKETRAVEMPQPPLFYALNEAGRAQTPPPARFNKKAALWDALLSGEMTMAALKQANAQAAKLIEDWAEQGWIETTEAAKPVLRPYRGQASHSEFVLNTGQQKASDEIQTALGRFRSFLLYGITGSGKTEVYFDAMAKVLAQGRQVLFLLPEINLTPQLLKRVENRFADVPTAVLHSRMAAGRRTQDYLRAMLGQAKLVIGTRLAVFTPLPDVGLIVVDEEHDGSFKQDNELRYHARDLAVWRAKQGGCPVVLGSATPSLESWHKAQSGAYRLLQLTERAHASAQLPQVDILNIGRLKLDNGFSPQALQLLKQNFEAGGMSLVYLNRRGFAPALFCGDCGHTFGCPNCSAKMVLHQRARQLRCHHCDHREPIPFKCPDCGNQDLTAVGHGTQRVEETLRAFLPKAAVVRVDRDSTAHKNDWADLYRRIANDEIDILVGTQMLAKGHDFARLNLVIVLNADGSLYSADFRAPERLFAELMQVSGRAGRADKPGKVLIQTQLPEHPVFAAVKAQDYAVFAENELNERQMFAMPPFGFQTAVRADAPRVADAMEFLNAAKETLAPLLPESVSRFGAAPMLMVRLAERERAQVFLESTSRQDLHRAVSLWVQVLQQNRDGKIRWSVDVDPQEA
Question: Which results are given for B3?
Answer: Km [3]: 54 ± 19 µM; kcat [3]: 9 ± 1 s⁻¹
